Test results published in US20230212549A1, “COMPOUNDS COMPRISING A […] LIGAND AND USE THEREOF” (priority 2021, published 2023).
Bridge positions count the residues as written; N and C are the ends.

T1: A20, P21580
T1 chain: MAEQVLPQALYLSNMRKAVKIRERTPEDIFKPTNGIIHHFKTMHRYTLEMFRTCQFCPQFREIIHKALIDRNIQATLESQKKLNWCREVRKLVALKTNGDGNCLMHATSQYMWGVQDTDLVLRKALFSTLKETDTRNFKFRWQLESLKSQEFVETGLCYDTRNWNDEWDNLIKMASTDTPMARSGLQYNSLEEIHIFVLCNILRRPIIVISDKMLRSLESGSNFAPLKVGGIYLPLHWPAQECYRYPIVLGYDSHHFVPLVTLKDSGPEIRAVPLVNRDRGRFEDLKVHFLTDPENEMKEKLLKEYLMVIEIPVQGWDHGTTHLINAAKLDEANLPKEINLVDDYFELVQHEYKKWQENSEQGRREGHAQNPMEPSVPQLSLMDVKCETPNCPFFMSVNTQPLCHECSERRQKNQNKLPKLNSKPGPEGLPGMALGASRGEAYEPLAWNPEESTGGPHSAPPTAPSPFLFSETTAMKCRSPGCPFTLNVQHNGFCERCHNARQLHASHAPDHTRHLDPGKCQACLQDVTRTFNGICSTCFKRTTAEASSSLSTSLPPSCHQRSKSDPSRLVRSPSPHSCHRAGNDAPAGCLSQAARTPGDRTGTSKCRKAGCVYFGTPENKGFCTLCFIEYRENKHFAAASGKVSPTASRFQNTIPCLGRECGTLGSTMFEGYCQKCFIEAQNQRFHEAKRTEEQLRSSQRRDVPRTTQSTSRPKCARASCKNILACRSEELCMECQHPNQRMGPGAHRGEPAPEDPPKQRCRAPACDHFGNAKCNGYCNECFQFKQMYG

T2: M1 (h) (human), P11229
T2 chain: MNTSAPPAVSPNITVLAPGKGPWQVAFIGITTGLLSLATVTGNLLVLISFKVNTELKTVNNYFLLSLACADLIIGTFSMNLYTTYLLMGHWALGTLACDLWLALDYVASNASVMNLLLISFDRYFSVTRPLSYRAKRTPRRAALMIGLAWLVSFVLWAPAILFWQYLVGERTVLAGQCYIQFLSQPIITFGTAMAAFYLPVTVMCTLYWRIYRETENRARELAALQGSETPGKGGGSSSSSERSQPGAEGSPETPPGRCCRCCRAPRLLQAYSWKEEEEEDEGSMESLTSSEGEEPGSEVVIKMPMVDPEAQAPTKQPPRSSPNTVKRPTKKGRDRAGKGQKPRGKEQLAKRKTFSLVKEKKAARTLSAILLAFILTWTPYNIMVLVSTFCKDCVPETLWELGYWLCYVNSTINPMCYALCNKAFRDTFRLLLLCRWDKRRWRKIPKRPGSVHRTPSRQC

T3: alpha 1A (h) (human), P35348
T3 chain: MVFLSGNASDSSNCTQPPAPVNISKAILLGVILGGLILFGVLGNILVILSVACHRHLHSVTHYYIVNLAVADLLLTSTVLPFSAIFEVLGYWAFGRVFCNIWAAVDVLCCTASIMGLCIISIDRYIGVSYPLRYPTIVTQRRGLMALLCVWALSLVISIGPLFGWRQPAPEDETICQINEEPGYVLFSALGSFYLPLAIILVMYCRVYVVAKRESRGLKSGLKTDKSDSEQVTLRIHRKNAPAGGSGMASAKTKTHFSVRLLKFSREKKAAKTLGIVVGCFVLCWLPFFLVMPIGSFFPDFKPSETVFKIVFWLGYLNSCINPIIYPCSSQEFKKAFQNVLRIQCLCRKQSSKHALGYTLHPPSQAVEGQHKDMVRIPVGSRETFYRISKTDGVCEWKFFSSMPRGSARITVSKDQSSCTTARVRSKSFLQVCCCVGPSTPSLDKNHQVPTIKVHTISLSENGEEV

T4: M2 (h) (human), P08172
T4 chain: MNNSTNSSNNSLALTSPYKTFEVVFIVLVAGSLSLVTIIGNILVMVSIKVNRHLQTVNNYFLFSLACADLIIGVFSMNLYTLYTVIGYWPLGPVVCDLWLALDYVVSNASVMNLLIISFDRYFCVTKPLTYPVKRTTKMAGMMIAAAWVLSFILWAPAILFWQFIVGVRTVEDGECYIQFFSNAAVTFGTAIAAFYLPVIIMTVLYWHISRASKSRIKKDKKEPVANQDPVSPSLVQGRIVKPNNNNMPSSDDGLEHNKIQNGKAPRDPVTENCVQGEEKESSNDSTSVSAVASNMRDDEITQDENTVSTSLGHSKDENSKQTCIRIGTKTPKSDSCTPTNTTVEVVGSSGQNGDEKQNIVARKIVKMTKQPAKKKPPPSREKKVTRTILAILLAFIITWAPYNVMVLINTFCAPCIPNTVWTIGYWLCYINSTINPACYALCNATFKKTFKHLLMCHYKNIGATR

B1: Hex-[Cys(tMeBn(DOTA-AET))-Pro-Pro-Thr-Gln-Phe-Cys]-OH (peptide)
peptide: Hex-CPPTQFC-OH
modifications: bridge 1-7; not fully specified (bridges); printed as Hex-[Cys(tMeBn(DOTA-AET))-Pro-Pro-Thr-Gln-Phe-Cys]-OH
B2: Hex-[Cys(tMeBn(DOTA-PP))-Pro-Pro-Thr-Gln-Phe-Cys]-Asp-NH2 (peptide)
peptide: Hex-CPPTQFCD-NH2
modifications: bridge 1-7; not fully specified (bridges); printed as Hex-[Cys(tMeBn(DOTA-PP))-Pro-Pro-Thr-Gln-Phe-Cys]-Asp-NH2

Key:
A20, P21580 = target: T1, A20, P21580; experiment: cell-based or functional assay
M1 (h) (human), P11229 = target: T2, M1 (h) (human), P11229; experiment: radioligand displacement (antagonist radioligand), 10 µM; details: remark: other sources report otherwise
[1] = target: Ca2+ channel (L, dihydropyridine site); experiment: as above
M3 (h) (human), P20309 = experiment: as above; details: remark: other sources report otherwise
[2] = target: T3, alpha 1A (h) (human), P35348; experiment: as above; details: remark: other sources report otherwise
[3] = target: 5-HT1B(h) (human), P28222; experiment: as above; details: remark: other sources report otherwise
KV channel = experiment: as above
M2 (h) (human), P08172 = target: T4, M2 (h) (human), P08172; experiment: as above; details: remark: other sources report otherwise
H1 (h) (human), P35367 = experiment: as above; details: remark: other sources report otherwise
Sequence of H1 (h) (human), P35367 (P35367 whole entry): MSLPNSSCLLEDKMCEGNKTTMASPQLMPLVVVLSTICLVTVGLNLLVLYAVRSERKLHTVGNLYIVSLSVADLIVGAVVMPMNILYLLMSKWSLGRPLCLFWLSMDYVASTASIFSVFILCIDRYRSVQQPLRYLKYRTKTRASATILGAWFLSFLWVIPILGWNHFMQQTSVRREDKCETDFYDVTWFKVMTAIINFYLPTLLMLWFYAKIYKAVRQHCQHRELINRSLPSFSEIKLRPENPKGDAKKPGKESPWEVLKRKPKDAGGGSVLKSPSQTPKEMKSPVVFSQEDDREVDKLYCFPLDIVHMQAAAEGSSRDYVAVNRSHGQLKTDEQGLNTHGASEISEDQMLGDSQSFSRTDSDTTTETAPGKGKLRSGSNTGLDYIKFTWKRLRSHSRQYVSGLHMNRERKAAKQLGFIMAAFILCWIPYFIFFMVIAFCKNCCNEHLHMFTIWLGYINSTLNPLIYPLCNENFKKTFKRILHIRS

Sequence of M3 (h) (human), P20309 (P20309 whole entry): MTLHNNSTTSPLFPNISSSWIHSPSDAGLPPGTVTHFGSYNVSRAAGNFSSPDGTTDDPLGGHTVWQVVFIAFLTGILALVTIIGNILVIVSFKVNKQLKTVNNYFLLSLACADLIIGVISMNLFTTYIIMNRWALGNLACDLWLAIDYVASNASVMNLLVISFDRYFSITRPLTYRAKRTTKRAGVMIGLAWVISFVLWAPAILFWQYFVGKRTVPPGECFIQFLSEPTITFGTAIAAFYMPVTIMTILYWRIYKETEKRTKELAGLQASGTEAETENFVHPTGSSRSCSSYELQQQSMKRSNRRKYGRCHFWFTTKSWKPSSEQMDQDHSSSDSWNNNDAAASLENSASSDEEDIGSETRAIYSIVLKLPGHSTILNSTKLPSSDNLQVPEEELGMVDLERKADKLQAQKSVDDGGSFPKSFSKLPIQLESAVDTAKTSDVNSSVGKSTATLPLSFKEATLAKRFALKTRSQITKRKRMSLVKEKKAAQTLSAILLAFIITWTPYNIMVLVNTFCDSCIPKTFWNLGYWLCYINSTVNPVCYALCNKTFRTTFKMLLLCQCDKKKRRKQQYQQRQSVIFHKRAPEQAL
Sequence of 5-HT1B(h) (human), P28222 (P28222 whole entry): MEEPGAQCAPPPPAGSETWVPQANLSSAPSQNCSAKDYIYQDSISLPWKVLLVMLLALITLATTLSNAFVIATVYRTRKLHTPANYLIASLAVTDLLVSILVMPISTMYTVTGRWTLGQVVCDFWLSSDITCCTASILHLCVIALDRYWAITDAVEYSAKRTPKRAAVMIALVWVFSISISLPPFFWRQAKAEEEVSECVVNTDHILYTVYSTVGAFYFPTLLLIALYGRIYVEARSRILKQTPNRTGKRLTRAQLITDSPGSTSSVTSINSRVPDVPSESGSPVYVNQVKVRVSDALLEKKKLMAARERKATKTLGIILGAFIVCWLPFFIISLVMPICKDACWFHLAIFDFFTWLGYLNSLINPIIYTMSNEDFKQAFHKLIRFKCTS

| Binder | Percentage inhibition (%) at 1 µM (A20, P21580) [%] | Percentage inhibition (%) at 10 µM (A20, P21580) [%] | % Inhibition of Specific Binding (M1 (h) (human), P11229) [%] | % Inhibition of Specific Binding [1] [%] | % Inhibition of Specific Binding (M3 (h) (human), P20309) [%] | % Inhibition of Specific Binding [2] [%] | % Inhibition of Specific Binding [3] [%] | % Inhibition of Specific Binding (KV channel) [%] | % Inhibition of Specific Binding (M2 (h) (human), P08172) [%] | % Inhibition of Specific Binding (H1 (h) (human), P35367) [%] |
| --- | --- | --- | --- | --- | --- | --- | --- | --- | --- | --- |
| B1 | 1 | 0 | 8 | 54 | 1 | -12 | 8 | 4 | 7 | 4 |
| B2 | 2 | -4 | 6 | 42 | 10 | 2 | -11 | -5 | -4 | 11 |
